US20110318356A1 (Novo Nordisk, published 2011)

Biological target: T1, recombinant full length human tissue factor pathway inhibitor (TFPI) (human, UniProt P10646 29-304)
T1 construct: also called TFPI1; human TFPI
Assay: SPR (Biacore), recombinant human TFPI over the mAb
Description: Binding interaction analysis was obtained by Surface Plasmon Resonance in a Biacore 3000. Capture of the relevant monoclonal antibody at a fixed concentration was obtained with immobilised mouse anti-IgG. Different concentrations of TFPI were tested.
These were followed by a direct binding kinetic procedure on selected mAb constructs, with the monoclonal antibody covalently coupled via free amine groups to the carboxymethylated dextrane membrane (CM5) on the sensor chip surface.

Row | Kd [nM] | kon [M⁻¹ s⁻¹] | Binder
1 | 0.0162 | 8.88e+06 | mouse/human chimera version of the anti-TFPI4F36 antibody (ChimTFPI4F36) (antibody, IgG4, V domains shown, also called Chimeric TFPI4F36; chimeric anti-TFPI4F36) VH: EVELVESGGGLVKPGGSLKLSCAASGFTFSNYAMSWVRQTPEKRLEWVATISRSGSYSYFPDSVQGRFTISRDNAKNTLYLQMSSLRSEDTAMYYCTRLGGYDEGDAMDSWGQGTSVTVSS VL: not shown

Biological target: T1, recombinant full length human tissue …
Assay: SPR (Biacore), recombinant human TFPI

Row | Kd [nM] | Binder
2 | > 0.03 | HzTFPI4F36 LC-K39R, Q42E, Q45K (antibody, human IgG4 S228P, kappa, name in Kabat numbering, V domains shown, Mutated CDR-grafted light chain with wild type CDR-grafted heavy chain; Kabat numbering) VH: EVQLVESGGGLVKPGGSLRLSCAASGFTFSNYAMSWVRQAPGKGLEWVSTISRSGSYSYYADSVKGRFTISRDNAKNSLYLQMNSLRAEDTAVYYCARLGGYDEGDAMDSWGQGTTVTVSS VL: DIVMTQTPLSLSVTPGQPASISCKSSQSLLESDGKTYLNWYLQRPGESPKLLIYLVSILDSGVPDRFSGSGSGTDFTLKISRVEAEDVGVYYCLQATHFPQTFGGGTKVEIKR
3 | 0.63 | HzTFPI4F36 LC-FR2 (antibody, human IgG4 S228P, kappa, name in Kabat numbering, Mutated CDR-grafted light chain with wild type CDR-grafted heavy chain; Kabat numbering; also called patch mutant in LC FR2) heavy: not shown light: DIVMTQTPLSLSVTPGQPASISCKSSQSLLESDGKTYLNWLLQRPGESPKLLIYLVSILDSGVPDRFSGSGSGTDFTLKISRVEAEDVGVYYCLQATHFPQTFGGGTKVEIKRTVAAPSVFIFPPSDEQLKSGTASVVCLLNNFYPREAKVQWKVDNALQSGNSQESVTEQDSKDSTYSLSSTLTLSKADYEKHKVYACEVTHQGLSSPVTKSFNRGEC

Biological target: T1, recombinant full length human tissue …
Assay: SPR (Biacore), recombinant human TFPI
Remark: another data set of the same source

Row | Kd [nM] | Binder
4 | 1.3 | HzTFPI4F36 HC-FR2, S49A (antibody, human IgG4 S228P, kappa, name in Kabat numbering, V domains shown, Mutated CDR-grafted heavy chain with wild type CDR-grafted light chain; Kabat numbering) VH: EVQLVESGGGLVKPGGSLRLSCAASGFTFSNYAMSWVRQTPEKRLEWVATISRSGSYSYYADSVKGRFTISRDNAKNSLYLQMNSLRAEDTAVYYCARLGGYDEGDAMDSWGQGTTVTVSS VL: DIVMTQTPLSLSVTPGQPASISCKSSQSLLESDGKTYLNWYLQKPGQSPQLLIYLVSILDSGVPDRFSGSGSGTDFTLKISRVEAEDVGVYYCLQATHFPQTFGGGTKVEIKR
5 | 7.7 | HzTFPI4F36 HC-FR3, S77T (antibody, human IgG4 S228P, kappa, name in Kabat numbering, V domains shown, Mutated CDR-grafted heavy chain with wild type CDR-grafted light chain; Kabat numbering) VH: EVQLVESGGGLVKPGGSLRLSCAASGFTFSNYAMSWVRQAPGKGLEWVSTISRSGSYSYYADSVKGRFTISRDNAKNTLYLQMSSLRSEDTAMYYCARLGGYDEGDAMDSWGQGTTVTVSS VL: DIVMTQTPLSLSVTPGQPASISCKSSQSLLESDGKTYLNWYLQKPGQSPQLLIYLVSILDSGVPDRFSGSGSGTDFTLKISRVEAEDVGVYYCLQATHFPQTFGGGTKVEIKR
6 | 5.5 | HzTFPI4F36 HC-Y59F (antibody, human IgG4 S228P, kappa, name in Kabat numbering, V domains shown, Mutated CDR-grafted heavy chain with wild type CDR-grafted light chain; Kabat numbering) VH: EVQLVESGGGLVKPGGSLRLSCAASGFTFSNYAMSWVRQAPGKGLEWVSTISRSGSYSYFADSVKGRFTISRDNAKNSLYLQMNSLRAEDTAVYYCARLGGYDEGDAMDSWGQGTTVTVSS VL: DIVMTQTPLSLSVTPGQPASISCKSSQSLLESDGKTYLNWYLQKPGQSPQLLIYLVSILDSGVPDRFSGSGSGTDFTLKISRVEAEDVGVYYCLQATHFPQTFGGGTKVEIKR
7 | 2.3 | HzTFPI4F36 HC-Y59F, A60P (antibody, human IgG4 S228P, kappa, name in Kabat numbering, V domains shown, Mutated CDR-grafted heavy chain with wild type CDR-grafted light chain; Kabat numbering) VH: EVQLVESGGGLVKPGGSLRLSCAASGFTFSNYAMSWVRQAPGKGLEWVSTISRSGSYSYFPDSVKGRFTISRDNAKNSLYLQMNSLRAEDTAVYYCARLGGYDEGDAMDSWGQGTTVTVSS VL: DIVMTQTPLSLSVTPGQPASISCKSSQSLLESDGKTYLNWYLQKPGQSPQLLIYLVSILDSGVPDRFSGSGSGTDFTLKISRVEAEDVGVYYCLQATHFPQTFGGGTKVEIKR
8 | 5.8 | HzTFPI4F36 HC-Q3E (antibody, human IgG4 S228P, kappa, name in Kabat numbering, Mutated CDR-grafted heavy chain with wild type CDR-grafted light chain; human kappa/IgG4(S241P)) heavy: not shown light: DIVMTQTPLSLSVTPGQPASISCKSSQSLLESDGKTYLNWYLQKPGQSPQLLIYLVSILDSGVPDRFSGSGSGTDFTLKISRVEAEDVGVYYCLQATHFPQTFGGGTKVEIKRTVAAPSVFIFPPSDEQLKSGTASVVCLLNNFYPREAKVQWKVDNALQSGNSQESVTEQDSKDSTYSLSSTLTLSKADYEKHKVYACEVTHQGLSSPVTKSFNRGEC
9 | > 0.03 | HzTFPI4F36 HC-FR2, CDR2 (antibody, human IgG4 S228P, kappa, name in Kabat numbering, V domains shown, Mutated CDR-grafted heavy chain with wild type CDR-grafted light chain; Kabat numbering) VH: EVQLVESGGGLVKPGGSLRLSCAASGFTFSNYAMSWVRQTPEKRLEWVSTISRSGSYSYFPDSVQGRFTISRDNAKNSLYLQMNSLRAEDTAVYYCARLGGYDEGDAMDSWGQGTTVTVSS VL: DIVMTQTPLSLSVTPGQPASISCKSSQSLLESDGKTYLNWYLQKPGQSPQLLIYLVSILDSGVPDRFSGSGSGTDFTLKISRVEAEDVGVYYCLQATHFPQTFGGGTKVEIKR
10 | 2.3 | HzTFPI4F36 HC-G44R (antibody, human IgG4 S228P, kappa, name in Kabat numbering, V domains shown, Mutated CDR-grafted heavy chain with wild type CDR-grafted light chain; Kabat numbering) VH: EVQLVESGGGLVKPGGSLRLSCAASGFTFSNYAMSWVRQAPGKRLEWVSTISRSGSYSYYADSVKGRFTISRDNAKNSLYLQMNSLRAEDTAVYYCARLGGYDEGDAMDSWGQGTTVTVSS VL: DIVMTQTPLSLSVTPGQPASISCKSSQSLLESDGKTYLNWYLQKPGQSPQLLIYLVSILDSGVPDRFSGSGSGTDFTLKISRVEAEDVGVYYCLQATHFPQTFGGGTKVEIKR
11 | 5.3 | HzTFPI4F36 HC-FR3 (antibody, human IgG4 S228P, kappa, name in Kabat numbering, V domains shown, Mutated CDR-grafted heavy chain with wild type CDR-grafted light chain; Kabat numbering) VH: EVQLVESGGGLVKPGGSLRLSCAASGFTFSNYAMSWVRQAPGKGLEWVSTISRSGSYSYYADSVKGRFTISRDNAKNSLYLQMSSLRSEDTAMYYCARLGGYDEGDAMDSWGQGTTVTVSS VL: DIVMTQTPLSLSVTPGQPASISCKSSQSLLESDGKTYLNWYLQKPGQSPQLLIYLVSILDSGVPDRFSGSGSGTDFTLKISRVEAEDVGVYYCLQATHFPQTFGGGTKVEIKR

The remaining lines, values behind:

Row | Binder | Kd [nM]
12 | HzTFPI4F36 HC-A60P (antibody, human IgG4 S228P, kappa, name in Kabat numbering, V domains shown, Mutated CDR-grafted heavy chain with wild type CDR-grafted light chain; Kabat numbering) VH: EVQLVESGGGLVKPGGSLRLSCAASGFTFSNYAMSWVRQAPGKGLEWVSTISRSGSYSYYPDSVKGRFTISRDNAKNSLYLQMNSLRAEDTAVYYCARLGGYDEGDAMDSWGQGTTVTVSS VL: DIVMTQTPLSLSVTPGQPASISCKSSQSLLESDGKTYLNWYLQKPGQSPQLLIYLVSILDSGVPDRFSGSGSGTDFTLKISRVEAEDVGVYYCLQATHFPQTFGGGTKVEIKR | 2.2
13 | HzTFPI4F36 HC-S49A (antibody, human IgG4 S228P, kappa, name in Kabat numbering, V domains shown, Mutated CDR-grafted heavy chain with wild type CDR-grafted light chain; Kabat numbering) VH: EVQLVESGGGLVKPGGSLRLSCAASGFTFSNYAMSWVRQAPGKGLEWVATISRSGSYSYYADSVKGRFTISRDNAKNSLYLQMNSLRAEDTAVYYCARLGGYDEGDAMDSWGQGTTVTVSS VL: DIVMTQTPLSLSVTPGQPASISCKSSQSLLESDGKTYLNWYLQKPGQSPQLLIYLVSILDSGVPDRFSGSGSGTDFTLKISRVEAEDVGVYYCLQATHFPQTFGGGTKVEIKR | 3
14 | HzTFPI4F36 HC-A93T (antibody, human IgG4 S228P, kappa, name in Kabat numbering, V domains shown, Mutated CDR-grafted heavy chain with wild type CDR-grafted light chain; Kabat numbering) VH: EVQLVESGGGLVKPGGSLRLSCAASGFTFSNYAMSWVRQAPGKGLEWVSTISRSGSYSYYADSVKGRFTISRDNAKNSLYLQMNSLRAEDTAVYYCTRLGGYDEGDAMDSWGQGTTVTVSS VL: DIVMTQTPLSLSVTPGQPASISCKSSQSLLESDGKTYLNWYLQKPGQSPQLLIYLVSILDSGVPDRFSGSGSGTDFTLKISRVEAEDVGVYYCLQATHFPQTFGGGTKVEIKR | 2.7
15 | HzTFPI4F36 HC-KABAT CDR2 (antibody, human IgG4 S228P, kappa, name in Kabat numbering, V domains shown, Mutated CDR-grafted heavy chain with wild type CDR-grafted light chain; Kabat numbering) VH: EVQLVESGGGLVKPGGSLRLSCAASGFTFSNYAMSWVRQAPGKGLEWVSTISRSGSYSYFPDSVQGRFTISRDNAKNSLYLQMNSLRAEDTAVYYCARLGGYDEGDAMDSWGQGTTVTVSS VL: DIVMTQTPLSLSVTPGQPASISCKSSQSLLESDGKTYLNWYLQKPGQSPQLLIYLVSILDSGVPDRFSGSGSGTDFTLKISRVEAEDVGVYYCLQATHFPQTFGGGTKVEIKR | 0.9
16 | HzTFPI4F36 HC-S77T (antibody, human IgG4 S228P, kappa, name in Kabat numbering, V domains shown, Mutated CDR-grafted heavy chain with wild type CDR-grafted light chain; Kabat numbering) VH: EVQLVESGGGLVKPGGSLRLSCAASGFTFSNYAMSWVRQAPGKGLEWVSTISRSGSYSYYADSVKGRFTISRDNAKNTLYLQMNSLRAEDTAVYYCARLGGYDEGDAMDSWGQGTTVTVSS VL: DIVMTQTPLSLSVTPGQPASISCKSSQSLLESDGKTYLNWYLQKPGQSPQLLIYLVSILDSGVPDRFSGSGSGTDFTLKISRVEAEDVGVYYCLQATHFPQTFGGGTKVEIKR | 1.5
17 | HzTFPI4F36 HC-G42E, G44R, S49A CDR2 (antibody, human IgG4 S228P, kappa, name in Kabat numbering, V domains shown, Mutated CDR-grafted heavy chain with wild type CDR-grafted light chain; Kabat numbering) VH: EVQLVESGGGLVKPGGSLRLSCAASGFTFSNYAMSWVRQAPEKRLEWVATISRSGSYSYFPDSVQGRFTISRDNAKNSLYLQMNSLRAEDTAVYYCARLGGYDEGDAMDSWGQGTTVTVSS VL: DIVMTQTPLSLSVTPGQPASISCKSSQSLLESDGKTYLNWYLQKPGQSPQLLIYLVSILDSGVPDRFSGSGSGTDFTLKISRVEAEDVGVYYCLQATHFPQTFGGGTKVEIKR | > 0.03
18 | HzTFPI4F36 HC-FR3, A93T (antibody, human IgG4 S228P, kappa, name in Kabat numbering, V domains shown, Mutated CDR-grafted heavy chain with wild type CDR-grafted light chain; Kabat numbering) VH: EVQLVESGGGLVKPGGSLRLSCAASGFTFSNYAMSWVRQAPGKGLEWVSTISRSGSYSYYADSVKGRFTISRDNAKNSLYLQMSSLRSEDTAMYYCTRLGGYDEGDAMDSWGQGTTVTVSS VL: DIVMTQTPLSLSVTPGQPASISCKSSQSLLESDGKTYLNWYLQKPGQSPQLLIYLVSILDSGVPDRFSGSGSGTDFTLKISRVEAEDVGVYYCLQATHFPQTFGGGTKVEIKR | 4.1
19 | HzTFPI4F36 HC-G44R, A60P, K64Q (antibody, human IgG4 S228P, kappa, name in Kabat numbering, V domains shown, Mutated CDR-grafted heavy chain with wild type CDR-grafted light chain; Kabat numbering) VH: EVQLVESGGGLVKPGGSLRLSCAASGFTFSNYAMSWVRQAPGKRLEWVSTISRSGSYSYYPDSVQGRFTISRDNAKNSLYLQMNSLRAEDTAVYYCARLGGYDEGDAMDSWGQGTTVTVSS VL: DIVMTQTPLSLSVTPGQPASISCKSSQSLLESDGKTYLNWYLQKPGQSPQLLIYLVSILDSGVPDRFSGSGSGTDFTLKISRVEAEDVGVYYCLQATHFPQTFGGGTKVEIKR | 0.03
20 | HzTFPI4F36 HC-FR2 (antibody, human IgG4 S228P, kappa, name in Kabat numbering, V domains shown, Mutated CDR-grafted heavy chain with wild type CDR-grafted light chain; Kabat numbering; also called patch mutant in HC FR2) VH: EVQLVESGGGLVKPGGSLRLSCAASGFTFSNYAMSWVRQTPEKRLEWVSTISRSGSYSYYADSVKGRFTISRDNAKNSLYLQMNSLRAEDTAVYYCARLGGYDEGDAMDSWGQGTTVTVSS VL: DIVMTQTPLSLSVTPGQPASISCKSSQSLLESDGKTYLNWYLQKPGQSPQLLIYLVSILDSGVPDRFSGSGSGTDFTLKISRVEAEDVGVYYCLQATHFPQTFGGGTKVEIKR | 0.88
21 | HzTFPI4F36 HC-K64Q (antibody, human IgG4 S228P, kappa, name in Kabat numbering, V domains shown, Mutated CDR-grafted heavy chain with wild type CDR-grafted light chain; Kabat numbering) VH: EVQLVESGGGLVKPGGSLRLSCAASGFTFSNYAMSWVRQAPGKGLEWVSTISRSGSYSYYADSVQGRFTISRDNAKNSLYLQMNSLRAEDTAVYYCARLGGYDEGDAMDSWGQGTTVTVSS VL: DIVMTQTPLSLSVTPGQPASISCKSSQSLLESDGKTYLNWYLQKPGQSPQLLIYLVSILDSGVPDRFSGSGSGTDFTLKISRVEAEDVGVYYCLQATHFPQTFGGGTKVEIKR | 2.5
